Results taken from the DeepSol protein solubility set.

assay: soluble on expression in E. coli; label from the status in PepcDB or PDB records

| Sequence | soluble on expression in E. coli |
| --- | --- |
| MRDLSHALGSGEPYPGDPPAAVTPHATMAADGYRVSAVACSTHSGTHIDAPSHLLADGRSLDAFDVSAFRFDAHVVDCTGYGPEDAIPVDRVPALDDHDMVVFNTGTAADWGRPEYYEHPHLSVAAAERCADAGCAVAVDAPSVDPTRTAPAGESSDAAAYPAHRALLGAGALIVENVTNLDGLPERVPVQAYPLPVAADGAPARVIAAPLEHHHHHH | soluble |
| MRDRVRWRVLSLPPLAQWREVMAALEVGPEAALAYWHRGFRRKEDLDPPLALLPLKGLREAAALLEEALRQGKRIRVHGDYDADGLTGTAILVRGLAALGADVHPFIPHRLEEGYGVLMERVPEHLEASDLFLTVDCGITNHAELRELLENGVEVIVTDHHTPGKTPPPGLVVHPALTPDLKEKPTGAGVAFLLLWALHERLGLPPPLEYADLAAVGTIADVAPLWGWNRALVKEGLARIPASSWVGLRLLAEAVGYTGKAVEVAFRIAPRINAASRLGEAEKALRLLLTDDAAEAQALVGELHRLNARRQTLEEAMLRKLLPQADPEAKAIVLLDPEGHPGVMGIVASRILEATLRPVFLVAQGKGTVRSLAPISAVEALRSAEDLLLRYGGHKEAAGFAMDEALFPAFKARVEAYAARFPDPVREVALLDLLPEPGLLPQVFRELALLEPYGEGNPEPLFLLFGAPEEARRLGEGRHLAFRLKGVRVLAWKQGDLALPPEVEVAGLLSENAWNGHLAYEVQAVDLRKPEALEGGIAPFAYPLPLLEALARARLGEGVYVPEDNPEGLDYAWKAGFRLLPPEEAGLWLGLPPRPVLGRRVEVALGREARARLSAPPVLHTPEARLKALVHRRLLFAYERRHPGLFSEALLAYWEVNRVQEPAGSP | soluble |
| MRDVPNIGFISLGCPKNLVDSERILTELRSDGYNIIPSYENADLVIVNTCGFIDSAVQESLEAVGEALKENGKVIVTGCLGAKENQIREVHPKVLEITGPHSYEAVMQHVHKYVPRPERNMYTSLVPAQGVKLTPKHYAYLKISEGCDHRCTFCIIPSMRGDLDSRPIVQILDEAKRLADSGVKELLIVSQDTSAYALDQTKENQNKTVFWNGVPIKNNLISLCEQLATLGIWIRLHYVYPYPHVDNLIPLMAEGKILPYLDIPLQHASPKILKAMKRPGSIDRTLERIKQWREICPELTLRSTFIVGFPGETEEDFQMLLDFLTEAQLDRVGCFKFSPVDGAVATEMAEQVPEEVKEERFHRFMQVQQRISVARLQQKIGKTLAIIIDEIDEYGIIGRSMADAPEIDGVVYVDNISQQAVTVGQIILVTITNADEYDLWGTYLEHHHHHH | soluble |
| MRDYSELEIFEGNPLDKWNDIIFHASKKLSKKELERLLELLALLETFIEKEDLEEKFESFAKALRIDEELQQKIESRKTDIVIQSMANILSGSGSGSGSSGNPLDKWNDIIFHASKKLSKKELERLLELLALLETFIEKEDLEEKFESFAKALRIDEELQQKIESRKTDIVIQSMANILSGLEHHHHHH | soluble |
| MREETFPGDIAQYFSVIHRAFLKDTKGEYAKYDLNPTNAYILLYLFFNKNSSQSELAQKLVINKGQITRETTKLLSLNFISKEISSKNRTTNVIAISSDGKKVIKKIIDIRNQWWEEKLKLSGVKTNSEFLDSLKKLESILN | not soluble |
| MREETKCALIIDESLPLGLIANTAAILGAALGKNKPDLIGETVTDGSGIDHLGIVKIPIPILKGNAELLHQLSQKLLTDEFNDILTVDFTDVAQSIHTYEAYIEAFQSTAASDYRYFGIGICGDKKKVARLTGSLGLLRLEHHHHHH | soluble |
| MRELQADFVKPARIDILLDMPPASRDLQLKHSWNSEDRSLNIFVKEDDKLTFHRHPVAQSTDCIRGKVGLTKGLHIWEIYWPTRQRGTHAVVGVCTADAPLHSVGYQSLVGSTEQSWGWDLGRNKLYHDSKNCAGVTYPAILKNDEAFLVPDKFLVALDMDEGTLSFIVDQQYLGIAFRGLRGKKLYPIVSAVWGHCEITMRYIGGLDPEPLPLMDLCRRTIRQKI | soluble |
| MREPYYKKLLGIKNYLIRKNYPEELEILIPKYVEENKELRGCIDCLSCLSVCPAREVSDYPGPTFMRQLARFAFDKRDEDGREITAYFENIYNCTTCAKCVEVCPKEIDIVHRAIEKLRALAFSKGYYIENHLEHHHHHH | not soluble |
| MRETIPIKYIDTIEINKLSIQDLEDLSSCKYKLLSAYLIGKIPANKILDADELEIYHNERTKKILAKAIKARKLVIVLKATRLCNLRCTYCHSWAEGPNQTILFSTLIHIVRQILAIPNVNRFEFVWHGGEVTLLKPAFFKKLIWLQEQFKRPEQYITNTMQSNIVNISDEWLIFIKGIGMNVGISLDGIPAVNDKRRVDFRGRGTSDRIAKGIKKLQKYDILYGALIVVDREVYQTDMREMLDYFILIELNGIEFLNIVPDNRLTAGEDIGNNFISYAEFIKFLSALFVIWIKGYREKIHIAIFEDFISVLEHPEKKLSACYWSGNCSQEIITLEPNGDVSPCDKYRGDAGSIYGSLLKTDLAGLLTQSSHNQQAIDEEVAATRKMQHCEWFSICHGGCPHDRVINRRHTKGYNDECCGTGKLLATIKAYLADIR | not soluble |
| MRETRMVYPVFPGETNHYGTLFGGTVLAWMDQAAFVAATRHARKKVVTVHADAVDFKRPVPLGAIVELVARLKEVGRTSMRVEVEMWVEPVKEGEEAYLAARGGFVLVAVDERGRPSPVPPLEGGEAHAPHGP | soluble |
| MRFFVSGMPGVGKTTLAKRIADEVRREGFKVGGIITEEIREGGKRTGFRVIALDTGEIGRLAYVGYGYPRLGKYVIDVEGFERVAIPALSRALRGADLIVIDEIGPMEFKSNEFLKALGLVLKSEKHLLATVHRRLVDRYRPLGEYYWLTPENRNAVFSEILGRIKGLLKEKLEHHHHHH | soluble |
| MRFIADLVHEKKQLVEKAEAILNEAEKAGGSLTKEQEQQFNRYKDRITRINDSIDEELSKIRTSEPILNMPHNPMAREDVSKIPVTKAISKSFRGMFYGNETVSLSNNGFHSMDEFLRTLHSGRADNRLINASMVEGIPEFGGYSVPEEYGAFLMDKSLENEIIRPRATVWAMGSETKKVSAFDGADRTNHLFGGISGEWLEEGQTGTRKTAKLRLIQLKAKKLACFSQASNELIADGMSFEEMLAGALIKGLGWYMDYAFINGTGEGQPLGIINDPALITVNKEASQEPATITYQNVVNMFSRLAPSCFTNAVWLANPSVIPQLLTMTITIGTGGAQIPVFREESGKFTLLGKEVLFTEKCPTLGAKGDLILADLSQYAIGMRKEIALDRSNVPGWMEDMTDYRVIVRVDGQGTWDKPITPKNGATLSWAVALEAR | soluble |
| MRFLDRFFKKKKKEEALWTKCPNCKSLLYVPDLESNLKVCPNCDYHFTLSALERIKYTLDEENPELLFEEILPADPLNFKDTKSYKDRIKKAQEETGLSEAIVITEGHIKGKRAILAVMDFNFIGGSMGSVVGERFFRACERAVETKTPLISFAASGGARMQEGILSLMQMAKTTFGVGLLKEANIPYISVLTNPTMGGVSASFAFLGDLILAEPKALIGFAGPRVIEQTIKQKLPEGFQTAEFLLEKGQIDMVVHRKELKDKLAYFLEVMYYAKRLEHHHHHH | not soluble |
| MRFLIPIIFTTLPLCLQAQEDPCASAPSEAAKIMCKQIHRWDDGARAASKKKKIALPPGMAKGMAAEFAPIASNIYQCMDLPCLCSYLRGTASGNGCTLPNGRPLQKSVRKEYRTLTDDERNRLHAAFRALKNNGEYERIGRIHSQMSAAGGAHSGPAFLPWHREFVKRVEFALRQVDPTVNLPYWDSTLDSRLPRPADTIMFSDYLMGSTGLVNDGPFTNWRTLAGRAQILRAVGAQGAPLSQNDIDFVMRQTQIDQVLSFTAPQQGCPYRTDFNCLEYTHGNVHIFVGGDMFDTATSSNDPSFFLHHAFIDFVWEEWRLARQSRADREIAFPPDNQLCASAQHFGASPMQPFSPMRNIDGLSNKYTDNLYSYAPRPTCQAGGDCGSKFLFCDTSTGAARCVSRIRPGSQCGQFRVNPCFSGICQNGVCVLSSTAPRPTPAPTTPTPQNPVQSQESCFNENQCCASWAASGECSRNTAYMNEWCKASCGVCKPKYRLADDCTDRHTQCSSWSRSGECTKNQLWMTENCRKSCNKCGRSRAQECGGGGTTVTTTTPAPAQQCDNSDGCFNENVCCAVWGLMGECRKNTRYMACNCRVSCGHCYPEDYNYGSCVDYHRSCAGWARVGECQKNPWMAENCRSSCNSCYTQSELRRMCGTTAGSVAPVAQVRQTNPSRQPPRGGWGRDDFGDNGGWGGNGGGGWGNNDPWGGSRWGGGRGGWGGGGWGGGGWGKRSIRAANASISMPSFDPDLL | not soluble |
| MRFPELEELKNRRTLKWTRFPEDVLPLWVAESDFGTCPQLKEAMADAVEREVFGYPPDATGLNDALTGFYERRYGFGPNPESVFAIPDVVRGLKLAIEHFTKPGSAIIVPLPAYPPFIELPKVTGRQAIYIDAHEYDLKEIEKAFADGAGSLLFCNPHNPLGTVFSEEYIRELTDIAAKYDARIIVDEIHAPLVYEGTHVVAAGVSENAANTCITITATSKAWNTAGLKCAQIFFSNEADVKAWKNLSDITRDGVSILGLIAAETVYNEGEEFLDESIQILKDNRDFAAAELEKLGVKVYAPDSTYLMWLDFAGTKIEEAPSKILREEGKVMLNDGAAFGGFTTCARLNFACSRETLEEGLRRIASVL | not soluble |
| MRFTVTSRGDDVSNTLQQKIKRYLLDFGLTLDEQEPDIVITVGGDGTLLHAFHRYTSRLEDTAFVGIHTGHLGFYADWVPDEVEKLVIHIAKTPYQIVEYPLLEVVVRHTDESESKRLLALNECTVKSQEGSLVSNVEIKGDVFEVFRGDGLCISTPSGSTAYNKALGGAILHPSLASIQISEMASINNRVYRTIGSPLVLPQHHTCLIKPLNQVELQVTIDHFTLAYKRVKSIQCRVAEEKIRFARFRPFPFWKRVKESFIGDSLEHHHHHH | soluble |
| MRFVMPGDRIGSAEEYVKGEGVYEEGGELFAAVAGKLIIKDRVAKVESISPIPEIVKGDVVLGRVVDLRNSIALIEVSSKKGENRGPSNRGIGILHVSNVDEGYVKEISEAVGYLDILKARVIGDNLRLSTKEEEMGVLRALCSNCKTEMVREGDILKCPECGRVEKRKISTDYGKGEW | soluble |
| MRGKLDLGEQPLVLIWEVTQACELACKHCRADAQPRRHPDELSTAEGKALLDQASEFGDGQLVVLSGGDPLARGDLPELVEYGTEQGLRMTLTPSGTNSITPERLAELDDAGLRRLALSIDGGDSDAHDTFRGESGSFEATMAAAEAARNLDIPLQINTTVCAETVEQLPAIRDLVADLDAVLWSVFFLVPVGRGRVLTPIDPERAERVLKWLHEVSDEASFGLKTTEAPHYRRVAMEQQDEGASGLKRRMGIRAGKGFAFVSHTGEVFPSGFLPKSAGSVREESVVDIYRDSPLFQQLRDDDALTGKCGACRYRTVCGGSRSRAYATTGDPLAADPLCDYRPDGFEGSVPDQHPAD | not soluble |
| MRGLAVLVLLVFAVQVAAAEDFRPVVFVHGLAGSAGQFESQGMRFAANGYPAEYVKTFEYDTISWALVVETDMLFSGLGSEFGLNISQIIDPETLDKILSKSRERLIDETFSRLDRVIDEALAESGADKVDLVGHSMGTFFLVRYVNSSPERAAKVAHLILLDGVWGVDAPEGIPTLAVFGNPKALPALGLPEEKVVYNATNVYFNNMTHVQLCTSPETFAVMFEFINGYKPATTDIVPQDGDYVKVKGKFLAFATNGDVSGWLSIYPIDENGKRLTRLPVKFMRVKGDFEVRLRKGQLYEFQFRKDFSPIIYHYYRAPFVRDDLWARFLVSKPPLDVELLILPERLSPAAKETSGLLLIRYKEMIGEYDEEIGGVDEVYVNGVNVCTERICPIERAVNGLWVFDRGADGKSDLDREVVRYSIMPFMSAADLVVPAEGTISIAVKSRTGGEESFTIPAWSADRHSIIVQFSDYI | not soluble |
